Consider two molecules from paper PMC11187062 (2024).

The test concerns the target T1, human UHRF1 PHD finger, residues 299–366 (human, UniProt Q96T88 299-366).
T1 chain: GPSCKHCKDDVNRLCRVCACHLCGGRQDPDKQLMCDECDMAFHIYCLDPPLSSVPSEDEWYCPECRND
Put plainly: ITC.

SRRGVRTALSVQREKMARLRYMLLGGVRTHERRPTNKE (domain or fragment) [hDPPA3_(81-118) L88A]: binding was characterised by a dissociation constant (Kd) of 1280 nM.

Consider SRRGARTLLSVQREKMARLRYMLLGGVRTHERRPTNKE (domain or fragment) [hDPPA3_(81-118) V85A], for which the dissociation constant (Kd) was 1610 nM.
